The supplement of paper PMC9170038

Tested on: MS2 coat protein
Assay: apparent KD of MS2 coat protein; designed switch direction (-1 OFF switch, 1 ON switch): -1; higher = weaker reporter binding
Procedure, shortened: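 Stalled E. coli RNA polymerase transcribed designed RNA switches on Illumina chips, which were then titrated with SNAP-549-labelled MS2 coat protein, doubling from 0.7 or 1.5 nM to 3 µM. Steps lasted from 0.8–1.5 h at the lowest concentration to 10–20 min at the highest. The apparent KD is each design's median over clusters of curve-fitted normalised fluorescence.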

[1] = input ligand: microRNA oligo, concentration not stated
[2] = Eterna round: R95, input ligand: microRNA oligo, concentration not stated

Sequence | apparent KD of MS2 coat protein (input ligand: FMN 200 uM) [nM] | apparent KD of MS2 coat protein (input ligand: none) [nM] | apparent KD of MS2 coat protein [1] [nM] | further results
UUCGGCGGAGGAUAUACAUAUUUUUGUUGAAUCGGCGGAAAACAUGAGGAUCACCCAUGUAGAAGGUUGUUGAA [-16.3, -13.4 kcal, A 30%] (Eterna round: R97, puzzle: Exclusion 2) | 27.2 | 32.3 |  | 
UUCGUACAGCAAAGCUGUACGCGUACAUGAGGAUCACCCAUGUAGGAUAUGGUAGGCAAAGCUUACUAGAAGGAUAGAGUGAUC [Mat - Exclusion NG 3 - Mod of JL - D76] (Eterna round: R96, puzzle: Exclusion NG 3) | 593 | 582 | 290 | 
UUCGUACAGCUUUGCUGUACGCGUACAUGAGGAUCACCCAUGUAGGAUAUGGUAGGCAAAGCUUACUAGAAGGAUAGAGUGAUC [Mat - Exclusion NG 3 - Mod of JL - D75] (Eterna round: R96, puzzle: Exclusion NG 3) | 244 | 238 | 96.2 | 
UUCGUUUUAGGAUAUACAGGGUUGGUCGACAACUCACUGUCACAUGAGGAUCACCCAUGUAGAAGGGAGAGAAG [Eternabot (L1) Solution 49] (Eterna round: R97, puzzle: Exclusion 2) | 244 | 198 |  | 
UUCUUUAUACGAGGAUAUCAUACAUGAGGAUCACCCAUGUGGCUGGGUCUGUUUUUAUAUAAUAUUGAGAAGGCGUUUUGCUAU [JR_ExcNG2_Sub072] (Eterna round: R96, puzzle: Exclusion NG 2) | 223 | 80.9 | 70.5 | 
UUGAAACAUACCUCCAUAAACAUGAGGAUCACCCAUGUAAGUGAGGAUAUAGAUUGAUUAGUAUACUAGAAGGCACUUAGAUAU [JR_ExcNG3_Sub043] (Eterna round: R96, puzzle: Exclusion NG 3) | 10.4 | 10.5 | 10.8 | 
UUGAACUUAGGAUAUUGGUUCAGCUACAUGAGGAUCACCCAUGUGGUACCUAGCUGAGGUCAAGAAGGGAGUGUUG [EX5 B.12] (Eterna round: R97, puzzle: Exclusion 5) | 25.6 | 20.6 |  | 
UUGAAGUCAUCAGGAUAUAGUAUUAAAGACAUUUAUAUUUUCAAACAUGAGGAUCACCCAUGUCGCUAGAAGGGAUUAUAGAUU [JR_ExcNG2_Sub080] (Eterna round: R96, puzzle: Exclusion NG 2) |  |  | 36.6 | 
UUGAGACAUGAGGAUCACCCAUGUAAGGAUAUAGUCGUCUGGUGGUCUCGGGUGGUGGCUAGAAGGUGCGUGCG [-15.7, 14.3 kcal, A 20%] (Eterna round: R97, puzzle: Exclusion 1) | 241 | 239 |  | 
UUGAUGUAAGGAUAUCGUGCAAGUUUCAAAAGAGGCUUGUGCGAGAAGGUACAUGAGGAUCACCCAUGUAGGUU [Omei Ex4 B8] (Eterna round: R97, puzzle: Exclusion 4) | 113 | 31.7 |  | 
UUGAUGUGAGGAUAUAUUUUGUGUUUUCUUUAUGUUUUAUAACUUGAGGAUCACCCAAGUAGAAGGCGCUACGU [JR_Ex2_Sub065] (Eterna round: R97, puzzle: Exclusion 2) | 119 | 60.6 |  | 
UUGAUGUGAGGAUAUGUGAUCUGCCUUCUAUAUAGAUGAUUACAGAAGGCACAUGAGGAUCACCCAUGUAGAUC [Ex4 - 3 - 24] (puzzle: Exclusion 4) |  |  |  | apparent KD of MS2 coat protein [2]: 49.2 nM
UUGCGAAGAGGAUAUUUUGUCAUCAACAUGAGGAUCACCCAUGUCUUCCUUUAUGCUAUAGAAGAAGGCUUCCAGU [Eternabot (L2) Solution 63] (Eterna round: R97, puzzle: Exclusion 5) | 59.9 | 37.1 |  | 
UUGGAGAUAGGAUAUACGAGGAGAGUAGAGGGAAGGUGAUGACAUGAGGAUCACCCAUGUAGAAGGAUCAGGAG [JR_Exclu2_Sub068] (puzzle: Exclusion 2) |  |  |  | apparent KD of MS2 coat protein [2]: 112 nM
UUGGAUAUCUAUGGGAGUAACAUGAGGAUCACCCAUGUAUGUCUUGUUUUUUGUUCGUCAUAGGCCAUUUGAUUGGA [JR_SV3TOV1_Sub025] (puzzle: Sensor v3, turn-off variant 1) |  |  |  | apparent KD of MS2 coat protein (Eterna round: R95, input ligand: FMN 200 uM): 78.8 nM; apparent KD of MS2 coat protein [2]: 140 nM; apparent KD of MS2 coat protein (Eterna round: R95, input ligand: none): 94.6 nM
UUGGUGUCAGGAUAUGCUUAAUGUGUUUUAUUAUAAUAUAUACAUGAGGAUCACCCAUGUAGAAGGGACAUUGU [LRO-Excl2-09-Fireball XL5] (Eterna round: R97, puzzle: Exclusion 2) | 48 | 48.5 |  | 

Sequence | apparent KD of MS2 coat protein (input ligand: FMN 200 uM) [nM] | apparent KD of MS2 coat protein (input ligand: none) [nM] | apparent KD of MS2 coat protein [1] [nM] | further results
UUGGUUGGUGUAGGAUAUGUAUGAGGAUCACCCAUUAAUAAAUUUUAACCACGAGGAUCACCCGUGUAGAAGGACAUUGGUUAU [pwkr exNG2 2xF5 1xFMN.22] (Eterna round: R96, puzzle: Exclusion NG 2) | 52 | 57.4 | 42.1 | 
UUGGUUGUGGUAGGAUAUCCGUUGGAAACCUUCGGAGAAGGACCACAGUCACUGGGUCUUUGUCUGGUGGACGGUGAAAACCGU [pwkr exNG1 F6.22] (Eterna round: R96, puzzle: Exclusion NG 1) | 138 | 730 | 498 | 
UUGGUUGUGGUAGGAUAUCCGUUGGAAACUGUUGGAGAAGGACCACAGUCACUGGGUCUUUGUUUGGUGGAGUGGAAGAACCAU [pwkr exNG1 F6.18] (Eterna round: R96, puzzle: Exclusion NG 1) | 166 | 324 | 532 | 
UUGUAACAUGAGGAUCACCCAUGUGAGGAUAUGGCCCGCCCGGCGUGAGCUGGUUUUGUCAGAAGGCGCAUAGG [salish99_ex1_r4_022] (Eterna round: R97, puzzle: Exclusion 1) | 158 | 49.9 |  | 
UUGUAACAUGAGGAUCACCCAUGUGAGGAUAUGGUUAAGUAAUGUAAUGUAAAGUAAUCCAGAAGGCACAUGUU [1st #24] (Eterna round: R97, puzzle: Exclusion 1) | 488 | 328 |  | 
UUGUACAUAGGAUAUAGUUGUUUCUACAUGAGGAUCACCCAUGUUAUUCCUCUCUCCCUUCUAGAAGGAUGUUUUU [JR_E5_Sub006] (puzzle: Exclusion 5) |  |  |  | apparent KD of MS2 coat protein [2]: 43.6 nM
UUGUACCGGUGAGGAUAUUUUUAAUAGAGCUUUAUGAUAUACAUGAGGAUCACCCAUGUUACGUUGAAGAAGGCAUCGGAUUAU [JL JR Sub091 mod 5] (Eterna round: R96, puzzle: Exclusion NG 2) | 19.3 | 19.8 | 15.5 | 
UUGUCGCAUGUAGGAUAUGUAUGUUAUUAUCAUACAGAAGGACAUGAGGAUCACCCAUGUGUAUUAUUAUUAUAUGUUACAUAU [MOD of Hoglahoo's a different Title] (Eterna round: R96, puzzle: Exclusion NG 1) |  |  | 14 | 
UUGUCGGCAGGAUAUACAUGAGGAUCACCCAUGUAAAUUUUUCGUUUAACUUGAAUGUGUAGAAGGGCCAUGUU [Ex3 #71] (Eterna round: R97, puzzle: Exclusion 3) | 35.3 | 24.5 |  | 
UUGUGCACGCUGCGAUCCUACAUGAGGAUCACCCAUGUGGUCUGGUGGCGUGGGUCACCGGACUUGGCUCGUCUUGU [salish99_S_TOV1_R5_080] (Eterna round: R97, puzzle: Sensor, turn-off variant 1) | 69.6 | 80.8 |  | 
UUGUUAUAUGAAGGAUAUACUUAACAUGAGGAUCACCCAUGUGGUGUUGUGAGUGAGUGAGUUUAGUAGAAGGUCAAUUCUUUU [JMF's solution 94] (Eterna round: R96, puzzle: Exclusion NG 2) | 735 | 421 | 440 | 
UUGUUAUAUGUAGGAUAUGCAUAUUAUUAUUAUGCAGAAGGACAUGAGGAUCACCCAUGUAUAUUAUUAUUAUAUGUUAUAUAU [Title] (Eterna round: R96, puzzle: Exclusion NG 1) |  |  | 19.5 | 
UUGUUAUAUGUAGGAUAUGCAUAUUGUUGUUAUGCAGAAGGACAUGAGGAUCACCCAUGUAUAUUAUUGUUAUAUAUUGUAUAU [Title] (Eterna round: R96, puzzle: Exclusion NG 1) |  |  | 20.1 | 
UUGUUAUAUGUAGGAUAUGCGUAUUAUUGUUAUGCAGAAGGACAUGAGGAUCACCCAUGUAUAUUAUUGUUAUAUAUUAUAUAU [Title] (Eterna round: R96, puzzle: Exclusion NG 1) |  |  | 20.3 | 
UUGUUCCGUGUAGGAUAUUGGUCUCCCUCGGGCCGAGAAGGACAUGAGGAUCACCCAUGUAUGUUAUUAUCGCGCGUGGCGCAU [Design 91] (Eterna round: R96, puzzle: Exclusion NG 1) | 112 | 37.9 | 21.6 | 
